Test system: TCR transduced Jurkat cells
Test: Co-culture of TMG-expressing immortalized B cells with TCR transduced Jurkat cells, CD69 by flow cytometry (Example 5)
Type: cell-based, human
Settings: 1:1 E:T, 20 hours co-culture
From the text: B cells from healthy donors are isolated from PBMCs using magnetic-bead enrichment using protocols known to the skilled artisan and subsequently immortalized either by EBV infection or transduction with BCL-6/BCL-xL with methods known to the skilled artisan and as described herein (Example 10). Non-EBV immortalized B cells are either transduced with BCL-6/BCL-xL alone or co-transduced with CD40L transgene. Retroviral supernatant for B cell transduction is produced using methods known to a person skilled in the art and as described in this invention (Example 10). B cells are retrovirally transduced with different TMG constructs. The example presents different TMG designs encoding varying numbers of 25mer epitopes (1, 3, 12 or 40 epitopes) with or without LAMP1 signaling and transmembrane sequences. 96 hours after transduction, TMG-expressing B cells are enriched based on puromycin resistance using protocols described in the art and this invention (Example 10). In brief, BCL-6/BCL-xL immortalized B cells are cultured in complete B cell medium (RPMI1640 medium supplemented with 10% (v/v) Fetal Calf Serum (FCS), 1% (v/v) Penicillin/Streptomycin (P/S), 1% (v/v) Sodium Pyruvate, 1% (v/v) Non-essential amino acids, 1% (v/v) Glutamax, 50 nM 2-Mercaptoethanol) containing rh-IL-21 (50 ng/mL) and 1 ug/ml puromycin and at a density of 200,000-250,000 cells/ml for 96 hours. […]

B1: CD40L transgene: hCD40L transgene expressed in BCL-6/BCL-xL immortalized B cells (protein)
DNA: MIETYNQTSPRSAATGLPISMKIFMYLLTVFLITQMIGSALFAVYLHRRLDKIEDERNLHEDFVFMKTIQRCNTGERSLSLLNCEEIKSQFEGFVKDIMLNKEETKKENSFEMQKGDQNPQIAAHVISEASSKTTSVLQWAEKGYYTMSNNLVTLENGKQLTVKRQGLYYIYAQVTFCSNREASSQAPFIASLCLKSPGRFERILLRAANTHSSAKPCGQQSIHLGGVFELQPGASVFVNVTDPSQVSHGTGFTSFGLLKL
  MHC-class II restricted antigen-presentation (CD69 expression by TCR transduced Jurkat cells): can enhance

— US20220228164A1, “ENGINEERED ANTIGEN PRESENTING CELLS” (Neogene Therapeutics B.V., priority 2021, published 2022)
